Results published in article PMC6480404.

Legend:
[1] = biological target: Streptococcus pyogenes Cas9 (Streptococcus pyogenes) (UniProt Q99ZW2); assay: native gel or EMSA
[2] = biological target: Streptococcus pyogenes Cas9 (Streptococcus pyogenes) (UniProt Q99ZW2); assay: cryo-EM structure

Kd [1]: 512 nM | stoichiometry N [2]: 1
Substance: AcrIIA2 (natural protein)
